For assay [1], the target named is hypothetical protein LOC297607 (rat) (UniProt D4A770). Briefly: IP of RBL-2H3 lysate on nickel beads, MS/MS ProtScore; 3rd of 3 experiments.
Assay [2] shares this target. As to the kind of experiment: IP of RBL-2H3 lysate on nickel beads, MS/MS ProtScore; 1st of 3 experiments.
Assay [3] shares this target. Briefly: IP of RBL-2H3 lysate on nickel beads, MS/MS ProtScore; 2nd of 3 experiments.

Sequence of hypothetical protein LOC297607 (rat) (D4A770 whole entry): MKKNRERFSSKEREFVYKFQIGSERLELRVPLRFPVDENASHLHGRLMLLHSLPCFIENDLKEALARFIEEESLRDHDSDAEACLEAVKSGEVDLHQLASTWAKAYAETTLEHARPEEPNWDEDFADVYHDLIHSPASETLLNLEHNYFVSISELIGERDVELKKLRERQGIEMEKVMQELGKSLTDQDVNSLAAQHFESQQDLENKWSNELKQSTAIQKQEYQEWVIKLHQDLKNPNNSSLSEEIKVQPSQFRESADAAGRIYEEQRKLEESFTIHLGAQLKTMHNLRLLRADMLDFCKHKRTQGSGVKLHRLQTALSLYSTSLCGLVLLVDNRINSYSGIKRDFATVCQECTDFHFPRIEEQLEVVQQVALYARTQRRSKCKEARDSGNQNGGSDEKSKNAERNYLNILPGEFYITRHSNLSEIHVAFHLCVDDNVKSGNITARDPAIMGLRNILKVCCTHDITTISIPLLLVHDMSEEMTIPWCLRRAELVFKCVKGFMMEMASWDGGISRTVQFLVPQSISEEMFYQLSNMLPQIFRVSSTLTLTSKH

For the substance irrelevant VH, the Protscore IP turned out to be 2 in assay [1], 0 in assay [2] and 0 in assay [3].

The values are drawn from patent US20150346192A1.
